Among the data in publication PMC6523629 are phosphorylation of TrkA (Tyr-490), Western blot, PC12 cells, 50 uM peptide with 1 uM CuSO4, 10 min, % of the untreated control and phosphorylation of TrkA (Tyr-490), Western blot, PC12 cells, 50 uM peptide, 10 min, % of the untreated control values, retold here.

This experiment deals with tropomyosin receptors kinase A (TrkA) (rat (endogenous in PC12)) (UniProt P35739).
Sequence of UniProt P35739 (P35739 33-799): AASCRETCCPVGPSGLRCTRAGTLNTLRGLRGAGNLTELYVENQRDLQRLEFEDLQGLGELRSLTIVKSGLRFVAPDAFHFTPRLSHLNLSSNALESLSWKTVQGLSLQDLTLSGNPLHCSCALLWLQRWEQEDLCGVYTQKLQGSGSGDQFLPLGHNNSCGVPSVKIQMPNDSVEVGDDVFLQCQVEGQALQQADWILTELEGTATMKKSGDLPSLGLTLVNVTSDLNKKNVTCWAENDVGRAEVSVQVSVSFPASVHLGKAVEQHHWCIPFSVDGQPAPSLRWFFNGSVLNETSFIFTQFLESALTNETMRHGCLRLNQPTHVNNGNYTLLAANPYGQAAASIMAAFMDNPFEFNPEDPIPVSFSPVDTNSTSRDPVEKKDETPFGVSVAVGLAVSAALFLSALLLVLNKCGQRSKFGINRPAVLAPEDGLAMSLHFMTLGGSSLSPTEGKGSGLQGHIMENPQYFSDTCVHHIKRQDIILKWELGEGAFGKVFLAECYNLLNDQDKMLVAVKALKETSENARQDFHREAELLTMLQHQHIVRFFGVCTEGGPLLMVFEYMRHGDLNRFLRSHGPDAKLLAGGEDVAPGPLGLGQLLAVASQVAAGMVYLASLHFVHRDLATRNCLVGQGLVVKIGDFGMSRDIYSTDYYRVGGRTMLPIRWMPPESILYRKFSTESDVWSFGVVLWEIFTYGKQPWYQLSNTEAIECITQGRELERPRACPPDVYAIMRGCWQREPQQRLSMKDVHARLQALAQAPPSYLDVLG

In turn, NGF(1-14) (peptide) gave a phosphorylation of TrkA (Tyr-490), Western blot, PC12 cells, 50 uM peptide with 1 uM CuSO4, 10 min, % of the untreated control of 825% and a phosphorylation of TrkA (Tyr-490), Western blot, PC12 cells, 50 uM peptide, 10 min, % of the untreated control of 540%.

The substance d-NGF(1-15) (peptide) registered a phosphorylation of TrkA (Tyr-490), Western blot, PC12 cells, 50 uM peptide with 1 uM CuSO4, 10 min, % of the untreated control of 1020% and a phosphorylation of TrkA (Tyr-490), Western blot, PC12 cells, 50 uM peptide, 10 min, % of the untreated control of 653%.
